Results published in patent publication US20250197491A1 (MACOMICS, published 2025).

B1: Reference Antibody 1 (anti-human LILRB1 Ab) (antibody, V domains shown)
VH: DVQLQGSGPGLVKPSETLSLTCSVTGYSITSGYYWNWIRQFPGKKLEWMGYISYDGSNNYNPSLKNRITISRDTSKNQFSLKLNSVTAADTATYYCAHGYSYYYAMDAWGQGTSVTVSS
VL: DIQMTQSPSSLSASVGDRVTITCRTSQDISNYLNWYQQKPGKAVKLLISYTSRLHSGVPSRFSGSGSGTDYTLTISSLQPEDFATYYCQQGNTLPTFGQGTKLEIK
B2: Reference antibody 2 (anti-human LILRB2 Ab) (antibody, human IgG4 S228P, lambda, V domains shown)
VH: EVQLQQWGAGLLKPSETLSLTCAVYGGSFSGYYWSWIRQPPGKGLEWIGEINHAGSTNYNPSLKSRVTISVDTSKNQFSLKLSSVTAADTAVYYCARLPTRWVTTRYFDLWGRGTLVTVSS
VL: ESVLTQPPSVSGAPGQRVTISCTGSSSNIGAGYDVHWYQQLPGTAPKLLIYGDSNRPSGVPDRFSVSKSGASASLAITGLQAEDEADYYCQSFDNSLSAYVFGGGTQLTVLG

How the values were obtained:
[1] = target: T1, Human full length LILRB1 (human, UniProt Q8NHL6 24-650); assay: flow cytometry on HEK293 cells overexpressing human LILRB1
T1 construct: Over-expressed on HEK293 cells for flow cytometry; also called LILRB1 on HEK293 cells; cell membrane embedded LILRB1
T1 sequence (Q8NHL6 24-650 limits assumed): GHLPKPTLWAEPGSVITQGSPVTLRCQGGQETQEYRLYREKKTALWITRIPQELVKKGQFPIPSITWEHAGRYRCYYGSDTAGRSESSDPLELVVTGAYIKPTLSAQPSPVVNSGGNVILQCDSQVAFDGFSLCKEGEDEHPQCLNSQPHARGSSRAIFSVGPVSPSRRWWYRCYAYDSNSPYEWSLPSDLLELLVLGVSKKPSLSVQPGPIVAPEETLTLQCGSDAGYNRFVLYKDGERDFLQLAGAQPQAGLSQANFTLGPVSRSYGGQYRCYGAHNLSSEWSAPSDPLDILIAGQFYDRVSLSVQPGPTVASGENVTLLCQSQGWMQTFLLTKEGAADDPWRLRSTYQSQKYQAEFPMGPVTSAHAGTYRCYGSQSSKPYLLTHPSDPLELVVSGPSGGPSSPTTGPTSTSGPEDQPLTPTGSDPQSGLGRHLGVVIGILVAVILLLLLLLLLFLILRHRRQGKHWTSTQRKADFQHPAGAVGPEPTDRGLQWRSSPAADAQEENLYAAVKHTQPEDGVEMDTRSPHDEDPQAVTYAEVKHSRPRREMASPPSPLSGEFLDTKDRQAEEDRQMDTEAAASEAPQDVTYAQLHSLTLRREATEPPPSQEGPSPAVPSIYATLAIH
Procedure: FIG. 5. Binding to LILRB1 over-expressing cell line. HEK293 cells overexpressing full length human LILRB1 (SEQ ID NO: 45) were incubated with various concentrations of test antibodies (Antibody 1 to 5 and Reference Ab 1). The bound antibodies were detected using PE-labeled secondary antibodies and analyzed by flow cytometry. A) Plot showing mean fluorescence intensity (MFI), B) EC50 values calculated using data from panel A.
Binding to human LILRB1 and LILRB2. HEK293 cells stably expressing full length human LILRB1 (SEQ ID NO: 45), or LILRB2 (SEQ ID NO: 46), or wild-type cells were detached from the culture plates using methods known in art. […] The extent of antibody binding to cells stably expressing full-length human LILRB1, or full-length human LILRB2, was determined by flow cytometry and quantified using geometric mean of the fluorescent signal (GEOM).
The ability of selected anti-LILRB-1 antibodies to bind to the LILRB1 receptor in its native context of the cell membrane was investigated by flow cytometry. HEK293 cells over-expressing full length human LILRB1 (SEQ ID NO: 45) were incubated with the increasing amounts of the antibodies and the cell bound antibodies were detected using PE-labelled secondary antibodies using a flow-cytometer.

[2] = target: T2, Human full length LILRB2 (human, UniProt Q8N423 22-597); assay: flow cytometry on HEK293 cells overexpressing human LILRB2
T2 construct: Over-expressed on HEK293 cells for flow cytometry; Also used here as the parent protein of the D3-D4 peptide microarrays; also called LILRB2 on HEK293 cells
T2 sequence (Q8N423 other isoform, or with tags, fused parts or gaps limits assumed): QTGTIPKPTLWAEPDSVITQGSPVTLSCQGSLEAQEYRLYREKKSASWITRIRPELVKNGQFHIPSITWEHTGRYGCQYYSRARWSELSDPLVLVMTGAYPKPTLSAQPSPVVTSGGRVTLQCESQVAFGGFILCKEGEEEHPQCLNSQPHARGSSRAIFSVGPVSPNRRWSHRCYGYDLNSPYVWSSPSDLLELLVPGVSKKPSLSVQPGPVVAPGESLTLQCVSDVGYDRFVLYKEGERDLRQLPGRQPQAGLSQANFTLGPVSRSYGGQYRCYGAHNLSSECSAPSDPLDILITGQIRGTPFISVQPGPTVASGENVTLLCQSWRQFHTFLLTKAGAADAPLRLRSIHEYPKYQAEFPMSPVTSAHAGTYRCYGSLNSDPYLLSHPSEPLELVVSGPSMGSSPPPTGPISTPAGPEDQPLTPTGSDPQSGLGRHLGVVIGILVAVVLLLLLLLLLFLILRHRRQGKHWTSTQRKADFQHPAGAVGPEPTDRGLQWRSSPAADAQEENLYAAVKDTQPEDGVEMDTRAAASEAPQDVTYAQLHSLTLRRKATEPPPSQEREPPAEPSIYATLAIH
Procedure: FIG. 7. Binding to LILRB2 over-expressing cell line. HEK293 cells overexpressing full length human LILRB2 (SEQ ID NO: 46) were incubated with various concentrations of test antibodies (Antibody 1 to 5 and Reference Antibody 1).
Binding to human LILRB1 and LILRB2. HEK293 cells stably expressing full length human LILRB1 (SEQ ID NO: 45), or LILRB2 (SEQ ID NO: 46), or wild-type cells were detached from the culture plates using methods known in art. The cells were then incubated with anti-LILRB1 Ab clones at different concentrations followed by incubation with fluorescently labelled secondary antibodies. The extent of antibody binding to cells stably expressing full-length human LILRB1, or full-length human LILRB2, was determined by flow cytometry and quantified using geometric mean of the fluorescent signal (GEOM).

[3] = target: T3, human LILRB1 ectodomain fused to mIgG2a Fc (human); assay: ELISA, antigen coated, 10 nM antibody
T3 construct: also called human LILRB1-mIgG2a; full length LILRB1 ectodomain
T3 sequence (chain, as listed by the source limits assumed): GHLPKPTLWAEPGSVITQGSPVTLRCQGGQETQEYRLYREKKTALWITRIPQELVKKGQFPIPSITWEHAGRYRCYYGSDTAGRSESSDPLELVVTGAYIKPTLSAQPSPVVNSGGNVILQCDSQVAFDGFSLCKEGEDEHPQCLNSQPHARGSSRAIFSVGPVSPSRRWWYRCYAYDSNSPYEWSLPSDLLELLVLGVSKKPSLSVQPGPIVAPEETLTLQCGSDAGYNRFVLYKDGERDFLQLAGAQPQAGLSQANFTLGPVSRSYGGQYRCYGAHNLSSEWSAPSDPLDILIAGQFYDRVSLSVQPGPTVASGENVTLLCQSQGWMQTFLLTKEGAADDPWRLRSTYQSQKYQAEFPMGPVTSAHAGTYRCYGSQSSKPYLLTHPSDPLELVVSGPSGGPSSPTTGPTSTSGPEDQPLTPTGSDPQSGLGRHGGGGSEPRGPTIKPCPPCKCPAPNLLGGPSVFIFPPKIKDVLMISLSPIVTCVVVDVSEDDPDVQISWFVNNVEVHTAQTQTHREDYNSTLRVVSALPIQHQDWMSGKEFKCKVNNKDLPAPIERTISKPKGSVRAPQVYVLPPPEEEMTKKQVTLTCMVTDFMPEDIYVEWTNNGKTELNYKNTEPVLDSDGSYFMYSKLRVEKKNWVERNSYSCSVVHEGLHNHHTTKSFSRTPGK
Description: (§1) FIG. 3. Mixed LILRB1 and LILRB2 expression in TAMs from melanoma cancer patients. Analysis of LILRB1 and LILRB2 detection in macrophages in pre- and post-anti-PD-1 and/or anti-CTLA-4 therapy treated melanoma patients (n=33) is shown using Smart-seq2 data from Sade-Feldman et al. https://pubmed.ncbi.nlm.nih.gov/30633907/FIG. 4. Binding to domains of human LILRB1. Plates were coated with recombinant full length LILRB1 ectodomain (SEQ ID NO: 41) or a protein comprising domain 1 and 2 of human LILRB1 protein (SEQ ID NO: 42), and then incubated with 10 nM Clones 1-5, Reference Ab 1, and Isotype control. The bound antibodies were detected using HRP-labeled secondary antibodies and the results were plotted on the graph as absorbance measured at 450 nm.
(§2) Binding to allelic forms of LILRB1. There are 4 major allelic variants of human LILRB1 protein ectodomain. The variants of LILRB1 were expressed as recombinant proteins comprising a modified LILRB1 ectodomain and mouse IgG2 Fc region (SEQ ID NO: 50 and 51) in suspension CHO cells, and purified by using techniques that were known in the art. These recombinant proteins were then used in the direct enzyme-linked immunosorbent assay (ELISA) to determine the antibodies potential to bind different allelic forms of LILRB1. In short, Maxisorp (Nunc) or similar immune-assay plates were coated with solutions of target proteins in PBS, at 4° C., overnight. Plates were then washed with PBS, blocked with 5% milk in PBS, and washed again. Test antibodies diluted in PBS were then added to the plates and incubated at room temperature for at least 1h. Plates were subsequently washed with PBS/0.05% Tween-20 (PBST) and incubated with a solution of horse radish peroxidase (HRP) labelled secondary antibodies at room temperature for at least 1 h. After washing with PBST and PBS, bound antibodies were detected using the 3,3′,5,5;-tetramethylbenzidine (TMB) chromogenic solution. After 5 to 10 minutes, the reaction was stopped with 1% sulphuric acid and absorbance read at 450 nm.
(§3) There are four major allelic variants within the ecto-domain of LILRB1 in human population [Human Molecular Genetics, 2005, Vol. 14, 2469-2480]; namely c.203T>C (L68P), c.277G>A (A93T), c.425T>C (I142T), and c.464G>T (S155I).

[4] = target: T4, Human LILRB1 (D1-D2) fused to mouse IgG2a Fc (human); assay: ELISA, antigen coated, 10 nM antibody
T4 construct: also called truncated (D1-D2) version of the LILRB1 ecto-domain
T4 sequence (chain, as listed by the source limits assumed): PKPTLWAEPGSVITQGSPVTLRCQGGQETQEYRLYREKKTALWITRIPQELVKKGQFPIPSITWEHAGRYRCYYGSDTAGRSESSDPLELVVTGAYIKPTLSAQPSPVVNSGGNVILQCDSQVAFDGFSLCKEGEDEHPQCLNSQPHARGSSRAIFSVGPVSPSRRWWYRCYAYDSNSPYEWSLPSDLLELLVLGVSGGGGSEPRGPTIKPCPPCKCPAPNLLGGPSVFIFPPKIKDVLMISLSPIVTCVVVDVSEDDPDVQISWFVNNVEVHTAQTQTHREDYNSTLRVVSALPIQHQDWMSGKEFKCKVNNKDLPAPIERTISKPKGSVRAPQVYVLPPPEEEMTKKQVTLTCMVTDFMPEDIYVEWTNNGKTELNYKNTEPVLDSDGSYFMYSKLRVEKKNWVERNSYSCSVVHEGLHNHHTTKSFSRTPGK
Description: as §1, §2, §3

[5] = target: T2, Human full length LILRB2; assay: flow cytometry, displacement of PE-labelled HLA-A2, HLA-E and HLA-G multimers from HEK293 cells overexpressing LILRB2
Procedure: To investigate if the Antibodies 1 to 5 could neutralize binding of other HLA-As to LILRB1 or to LILRB2, HEK293 cells overexpressing the receptors were incubated with constant concentrations of PE-labelled HLA-A2, HLA-E, and HLA-G multimers and increasing concentrations of Antibodies 1 to 5 or the reference antibodies. The ability to neutralize binding of HLA to the cells was determined by flow cytometry (FIG. 21). None of Antibodies 1 to 5 neutralized binding of HLA-A (A), HLA-E (B), and […] to LILRB1 protein, up to the concentrations of 100 nM, whereas Reference 1 antibody (LILRB1 specific) and Reference 3 antibody (LILRB1/2 specific) neutralized the binding with an IC₅₀ in the sub- or low-nM range. Similarly, none of Antibodies 1 to 5 neutralised efficiently the binding of HLA-A (E) and HLA-G (G). […] Reference Antibody 2 (LILRB2 specific) and Reference Antibody 3 (LILRB1/2 specific), inhibited the binding for all HLAs, with IC₅₀ with sub- or low-nM range.

| Binder | EC50 [1] | binding result [2] | binding result [3] | binding result [4] | binding result [5] |
| --- | --- | --- | --- | --- | --- |
| B1 | 730 pM | no binding | binds | binds | – |
| B2 | – | – | – | – | binds |
